In experiment [1] the target is membrane-bound TNFalpha on stably transfected CHO cells (B-220 cells). Description: FACS, beads with CHO-TNFα (B220) cells, Sample 2.
Experiment [2] shares this target. Briefly: FACS, mixed beads with CHO-TNFα (B220) cells, Sample 4.
For experiment [3] the target is unchanged. Briefly: FACS, anti-CD19 beads with TNFalpha-transfected CHO cells (FIG. 4, middle panel).

Substance “APC labeled unrelated antibody (anti-CD19), coated on beads” came in with a % bound beads in experiment [1] of 0.9%. This substance also showed a % bound beads in experiment [2] of 0.4%. In addition, in experiment [3], the # Events (cells bound to anti-CD19-APC beads) was determined as 6 events, the % Parent turned out to be 0.1% and the % Total came to 0.1%.

Values taken from patent US20180127493A1.
